This note sets out measurements from patent publication US20060068386A1, “Complete genome and protein sequence of the hyperthermophile methanopyrus kandleri av19 and monophyly of archael methanogens and methods of use thereof” (priority 2002, published 2006).

In one data set the target is M.K. polB DNA polymerase (Methanopyrus kandleri, UniProt Q8TWJ5). Kind of data set: Effects of media components on M.K. polB DNA polymerase activity (primer extension). In kind it is biochemical. The procedure: DNA polymerase reaction mixtures (15-20 μl) contained dATP, dTTP, dCTP, and dGTP (1 mM each), 4.5 mM MgCl2, detergents Tween 20 and Nonidet P-40 (0.2% each), fixed concentrations of PTJ—duplex, other additions, as indicated, and appropriate amounts of polB in 30 mM Tris-HCl buffer pH 8.0 (25° C.). The background reaction mixtures contained all components except DNA polymerases. Primer extensions were carried out for a preset time at 75° C. in PTC-150 Minicycler (MJ Research, Inc.; Waltham, Mass.). 5 μl samples were removed and chilled to 4° C. followed by immediate addition of 20 μl of 20 mM EDTA. The samples were desalted by centrifugation through Sephadex G-50 spun columns, diluted, and analyzed on a ABI Prism 377 DNA sequencer (Applied BioSystems; Foster City, Calif.). For each sample, raw data were extracted from the sequencer trace files with the program Chromas 1.5 (Technelysium Pty Ltd., Australia), and the fluorescent signals were analyzed by our nonlinear regression data analysis programs written in Fortran. The programs applied Powell algorithms to approximate the signals by a number of Gaussian peaks and calculate integral fluorescent intensities for each product peak. The total amount of fluorescent products for each time of incubation was determined, and the initial rates of extension were calculated.
The next two tables (Table 4 and 5) display effects of various media components on M.K. polB DNA polymerase activity. Initial rates of primer extension reaction were measured as described by Pavlov et al., 2002.

Data set [1] deals with T1, M. kandleri AV19 DNA polymerase family B (Mka PolB) (MK1039) (Methanopyrus kandleri AV19).
T1 chain: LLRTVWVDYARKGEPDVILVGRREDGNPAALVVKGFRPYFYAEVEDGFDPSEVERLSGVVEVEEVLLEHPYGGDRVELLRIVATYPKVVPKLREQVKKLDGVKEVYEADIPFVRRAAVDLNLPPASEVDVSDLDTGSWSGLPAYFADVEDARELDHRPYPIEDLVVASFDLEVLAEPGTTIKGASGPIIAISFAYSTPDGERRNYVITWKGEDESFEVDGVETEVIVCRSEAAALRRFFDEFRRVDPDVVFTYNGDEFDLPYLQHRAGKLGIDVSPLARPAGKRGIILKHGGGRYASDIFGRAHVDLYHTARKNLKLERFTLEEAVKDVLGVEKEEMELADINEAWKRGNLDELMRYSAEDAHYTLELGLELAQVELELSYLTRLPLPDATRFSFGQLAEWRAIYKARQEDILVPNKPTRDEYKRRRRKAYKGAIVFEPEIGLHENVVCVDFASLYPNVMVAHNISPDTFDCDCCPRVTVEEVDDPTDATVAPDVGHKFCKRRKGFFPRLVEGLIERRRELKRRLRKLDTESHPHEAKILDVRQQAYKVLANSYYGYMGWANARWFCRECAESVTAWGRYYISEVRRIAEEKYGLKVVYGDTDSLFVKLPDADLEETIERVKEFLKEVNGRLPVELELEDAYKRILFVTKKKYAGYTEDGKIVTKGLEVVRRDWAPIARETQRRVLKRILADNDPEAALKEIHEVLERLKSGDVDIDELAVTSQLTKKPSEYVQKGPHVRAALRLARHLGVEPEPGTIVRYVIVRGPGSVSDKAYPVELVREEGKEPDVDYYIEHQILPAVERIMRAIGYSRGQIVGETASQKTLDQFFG
Kind of data set: cell-based or functional assay.

The next data set has as its system PolB. Kind of data set: Interaction of polB with PCNA (primer extension assay). As to conditions: PCNA 5.6 μM subunits, 100 mM NaCl. In kind it is biochemical, Methanopyrus kandleri. As to the method: PolB was incubated with PCNA (final concentration 5.6 μM subunits) in the presence of 100 mM NaCl. The polymerase activity was measured in the primer extension assay and compared to the activity without PCNA added. Even without clamp loader, the interaction of PCNA with PolB was detected as the initial rate of the primer extension increased 1.75 times. […] This happens, most likely because PCNA anchors polB on the PTJ and/or prevents partial melting of the PTJ duplex.

Chain of M.K. polB DNA polymerase (Q8TWJ5 entry or part of it): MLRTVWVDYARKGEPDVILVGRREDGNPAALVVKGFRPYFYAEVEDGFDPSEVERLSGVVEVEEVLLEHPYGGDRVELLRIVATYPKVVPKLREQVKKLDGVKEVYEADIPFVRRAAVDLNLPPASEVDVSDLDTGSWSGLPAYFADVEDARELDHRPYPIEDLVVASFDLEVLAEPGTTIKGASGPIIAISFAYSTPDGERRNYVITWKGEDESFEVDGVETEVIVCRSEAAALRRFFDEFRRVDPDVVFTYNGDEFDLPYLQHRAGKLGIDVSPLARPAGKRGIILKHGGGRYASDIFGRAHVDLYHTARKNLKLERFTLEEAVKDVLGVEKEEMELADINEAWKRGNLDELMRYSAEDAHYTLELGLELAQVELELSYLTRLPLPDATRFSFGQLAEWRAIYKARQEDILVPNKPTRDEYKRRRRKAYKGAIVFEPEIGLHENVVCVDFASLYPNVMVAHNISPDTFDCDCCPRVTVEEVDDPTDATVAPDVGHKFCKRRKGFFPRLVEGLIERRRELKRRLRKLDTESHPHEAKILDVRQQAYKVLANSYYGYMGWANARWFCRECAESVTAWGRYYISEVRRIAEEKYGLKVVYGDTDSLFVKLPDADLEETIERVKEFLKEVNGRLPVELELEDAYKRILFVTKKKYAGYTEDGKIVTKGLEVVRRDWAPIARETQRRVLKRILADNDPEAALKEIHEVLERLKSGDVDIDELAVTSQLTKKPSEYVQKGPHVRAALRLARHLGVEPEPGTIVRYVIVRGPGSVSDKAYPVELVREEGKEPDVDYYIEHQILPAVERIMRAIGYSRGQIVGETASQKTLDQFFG

B1: M. kandleri AV19 PCNA (MK1030), DNA polymerase sliding clamp (other)
chain: LVEFRAYQEEARYFKYAFNAAGKVVEEAPLIVTENGIVSRAMDASHIAMAVLEMPWEMFDEYEPPSDELMYGLDMEEVTRIVRRARVTDEITLEGEDEEEVIIKLGSSGYEREFRLRSIDIDDIPDEPELDFAVEVTVVPDFIQDAVRDADLVSDTVKVGAKGNTFYFKAEGERGRVIPKVQEGAEALLTFEVEEDVETAYPLDYLKDMIQAAQGAESVRIRLGQDMPLELTFRIGPAGEGKLTFYLAPRVEE
In the case of B1, the “effect on polymerase activity of PolB” value with M.K. polB DNA polymerase was “increase”. Also, the “initial rate of the primer extension” value in data set [1] came to 1.75 fold. Moreover, in the data set with PolB, the “effect on hydrolysis of the primer annealed to the duplex” value is listed as “suppression of hydrolysis of the primer”.
